The record followed here is paper PMC9407465.

The nature of one series: luciferase reporters. To be noted: glycan lost.
Series [1] in a line: IP and acetylation immunoblot. To be noted: glycan lost; control: wild type Gli2.

B1: Gli2 (GLI family zinc finger 2): S355A (protein)
parent chain: METSAPAPALEKKEAKSGLLEDSSFPDPGKKACPLAVAAAVAAHGVPQQLLPAFHAPLPIDMRHQEGRYHYDPHSVHSVHGPPTLSGSPVISDISLIRLSPHPAGPGESPFSAHHPYVNPHMEHYLRSVHSSPTLSMISAARGLSPADVAHEHLKERGLFSLAAPGTNPSDYYHQMTLMASHPTPYGDLLMQSGGAASAPHLHDYLNPVDASRFSSPRVTPRLSRKRALSISPLSDASLDLQRMIRTSPNSLVAYINNSRSSSAASGSYGHLSAGALSPAFTFPHPINPVAYQQILSQQRGLGSAFGHTPPLIQPSPTFLAQQPMTLTSISTMPTQLSSSSSNCLNDANQNKQNSESAVSSTVNPITIHKRSKVKTEAEGLRPASPLGLTQEQLADLKEDLDRDDCKQEAEVVIYETNCHWADCTKEYDTQEQLVHHINNEHIHGEKKEFVCRWQACTREQKPFKAQYMLVVHMRRHTGEKPHKCTFEGCSKAYSRLENLKTHLRSHTGEKPYVCEHEGCNKAFSNASDRAKHQNRTHSNEKPYICKIPGCTKRYTDPSSLRKHVKTVHGPDAHVTKKQRNDVHVRAPLLKENGDNEASAEPGGRGPEESVEASSTSHTVEDCLHIKAIKTESSGLCQSSPGAQSSCSSEPSPLGSAPNNDSGMEMPGTGPGSLGDLTALADTCPGADTSALAAPSTGGLQLRKHMSTVHRFEQLKREKLKSLKDSCSWAGPAPHTRNTKLPPLPVNGSVLENFNNTGGGGPAGLLPSQRLPELTEVTMLSQLQERRDSSTSTMSSAYTVSRRSSGISPYFSSRRSSEASPLGGLRPHNASSADSYDPISTDASRRSSEASQCSGGGPGLLNLTPAQQYNLRAKYAAATGGPPPTPLPGLDRVSLRTRLALLDAPERALPGACPHPLGPRRGSDGPTYSHGHGHGYAGAAPAFPHEGPNSSTRRASDPVRRPDPLILPRVQRFHSTHNMNPGSLPPCADRRGLHVQSHPSVDSNLTRNAYSPRPPSINENVVMEAVAAGVDGPGLECDLGLVEDELVLPDDVVQYIKAHTGGTLDDGIRQGYPTEGTGFPENSKLPSPGLQGHRRLAAADSNMGPSAPGLGGCQLSYSPSSNLNKSNMPVQWNEVSSGTVDALPTQVKPPPFPHSNLAVVQQKPAFGQYPGYNPQSVQSSSGGLDSTQPHLQLRGAPSASRGSYTQQPRQPAAGSQCLGMSAAMSPQASYSQAHPQLSPNIVSGSLNQFSPSCSNMAAKPSHLGLPQQMEVVPNATIMNGHQREHGVPNSSLAAVSQPHPVLSYPQQDSYQQGSNLLSSHQPGFMESQQNAGFGLMQPRPPLEPNTASRHRGVRSGQQQLYARTTGQAMVTSANQETAEAMPKGPAGTMVSLAPQPSQDTGRAQDQNTLYYYGQIHMYEQNGGCPAVQPQPPQPQACSDSIQPEPLPSPGVNQVSSTVDSQLLEPPQIDFDAIMDDGDHSSLFSGALSPTLLHNLSQNSSRLTTPRNSLTLPSIPAGISNMAVGDMSSMLTSLAEESKFLNMMT
Take B1: the “other: transcriptional activity” value in the series “luciferase reporters” (control: wild type Gli2) is on record as “decreases”. In addition, the “other: Gli2 acetylation” value in series [1] is reported as “increases”.

B2: Gli2 (GLI family zinc finger 2): S355D (protein)
parent chain: METSAPAPALEKKEAKSGLLEDSSFPDPGKKACPLAVAAAVAAHGVPQQLLPAFHAPLPIDMRHQEGRYHYDPHSVHSVHGPPTLSGSPVISDISLIRLSPHPAGPGESPFSAHHPYVNPHMEHYLRSVHSSPTLSMISAARGLSPADVAHEHLKERGLFSLAAPGTNPSDYYHQMTLMASHPTPYGDLLMQSGGAASAPHLHDYLNPVDASRFSSPRVTPRLSRKRALSISPLSDASLDLQRMIRTSPNSLVAYINNSRSSSAASGSYGHLSAGALSPAFTFPHPINPVAYQQILSQQRGLGSAFGHTPPLIQPSPTFLAQQPMTLTSISTMPTQLSSSSSNCLNDANQNKQNSESAVSSTVNPITIHKRSKVKTEAEGLRPASPLGLTQEQLADLKEDLDRDDCKQEAEVVIYETNCHWADCTKEYDTQEQLVHHINNEHIHGEKKEFVCRWQACTREQKPFKAQYMLVVHMRRHTGEKPHKCTFEGCSKAYSRLENLKTHLRSHTGEKPYVCEHEGCNKAFSNASDRAKHQNRTHSNEKPYICKIPGCTKRYTDPSSLRKHVKTVHGPDAHVTKKQRNDVHVRAPLLKENGDNEASAEPGGRGPEESVEASSTSHTVEDCLHIKAIKTESSGLCQSSPGAQSSCSSEPSPLGSAPNNDSGMEMPGTGPGSLGDLTALADTCPGADTSALAAPSTGGLQLRKHMSTVHRFEQLKREKLKSLKDSCSWAGPAPHTRNTKLPPLPVNGSVLENFNNTGGGGPAGLLPSQRLPELTEVTMLSQLQERRDSSTSTMSSAYTVSRRSSGISPYFSSRRSSEASPLGGLRPHNASSADSYDPISTDASRRSSEASQCSGGGPGLLNLTPAQQYNLRAKYAAATGGPPPTPLPGLDRVSLRTRLALLDAPERALPGACPHPLGPRRGSDGPTYSHGHGHGYAGAAPAFPHEGPNSSTRRASDPVRRPDPLILPRVQRFHSTHNMNPGSLPPCADRRGLHVQSHPSVDSNLTRNAYSPRPPSINENVVMEAVAAGVDGPGLECDLGLVEDELVLPDDVVQYIKAHTGGTLDDGIRQGYPTEGTGFPENSKLPSPGLQGHRRLAAADSNMGPSAPGLGGCQLSYSPSSNLNKSNMPVQWNEVSSGTVDALPTQVKPPPFPHSNLAVVQQKPAFGQYPGYNPQSVQSSSGGLDSTQPHLQLRGAPSASRGSYTQQPRQPAAGSQCLGMSAAMSPQASYSQAHPQLSPNIVSGSLNQFSPSCSNMAAKPSHLGLPQQMEVVPNATIMNGHQREHGVPNSSLAAVSQPHPVLSYPQQDSYQQGSNLLSSHQPGFMESQQNAGFGLMQPRPPLEPNTASRHRGVRSGQQQLYARTTGQAMVTSANQETAEAMPKGPAGTMVSLAPQPSQDTGRAQDQNTLYYYGQIHMYEQNGGCPAVQPQPPQPQACSDSIQPEPLPSPGVNQVSSTVDSQLLEPPQIDFDAIMDDGDHSSLFSGALSPTLLHNLSQNSSRLTTPRNSLTLPSIPAGISNMAVGDMSSMLTSLAEESKFLNMMT
With B2, in “luciferase reporters” (control: wild type Gli2), the “other: transcriptional activity” value is “decreases”.

B3: human GLI2: S358A (protein)
parent chain: METSASATASEKQEAKSGILEAAGFPDPGKKASPLVVAAAAAAAVAAQGVPQHLLPPFHAPLPIDMRHQEGRYHYEPHSVHGVHGPPALSGSPVISDISLIRLSPHPAGPGESPFNAPHPYVNPHMEHYLRSVHSSPTLSMISAARGLSPADVAQEHLKERGLFGLPAPGTTPSDYYHQMTLVAGHPAPYGDLLMQSGGAASAPHLHDYLNPVDVSRFSSPRVTPRLSRKRALSISPLSDASLDLQRMIRTSPNSLVAYINNSRSSSAASGSYGHLSAGALSPAFTFPHPINPVAYQQILSQQRGLGSAFGHTPPLIQPSPTFLAQQPMALTSINATPTQLSSSSNCLSDTNQNKQSSESAVSSTVNPVAIHKRSKVKTEPEGLRPASPLALTQGQVSGHGSCGCALPLSQEQLADLKEDLDRDDCKQEAEVVIYETNCHWEDCTKEYDTQEQLVHHINNEHIHGEKKEFVCRWQACTREQKPFKAQYMLVVHMRRHTGEKPHKCTFEGCSKAYSRLENLKTHLRSHTGEKPYVCEHEGCNKAFSNASDRAKHQNRTHSNEKPYICKIPGCTKRYTDPSSLRKHVKTVHGPDAHVTKKQRNDVHLRTPLLKENGDSEAGTEPGGPESTEASSTSQAVEDCLHVRAIKTESSGLCQSSPGAQSSCSSEPSPLGSAPNNDSGVEMPGTGPGSLGDLTALDDTPPGADTSALAAPSAGGLQLRKHMTTMHRFEQLKKEKLKSLKDSCSWAGPTPHTRNTKLPPLPGSGSILENFSGSGGGGPAGLLPNPRLSELSASEVTMLSQLQERRDSSTSTVSSAYTVSRRSSGISPYFSSRRSSEASPLGAGRPHNASSADSYDPISTDASRRSSEASQCSGGSGLLNLTPAQQYSLRAKYAAATGGPPPTPLPGLERMSLRTRLALLDAPERTLPAGCPRPLGPRRGSDGPTYGHGHAGAAPAFPHEAPGGGARRASDPVRRPDALSLPRVQRFHSTHNVNPGPLPPCADRRGLRLQSHPSTDGGLARGAYSPRPPSISENVAMEAVAAGVDGAGPEADLGLPEDDLVLPDDVVQYIKAHASGALDEGTGQVYPTESTGFSDNPRLPSPGLHGQRRMVAADSNVGPSAPMLGGCQLGFGAPSSLNKNNMPVQWNEVSSGTVDALASQVKPPPFPQGNLAVVQQKPAFGQYPGYSPQGLQASPGGLDSTQPHLQPRSGAPSQGIPRVNYMQQLRQPVAGSQCPGMTTTMSPHACYGQVHPQLSPSTISGALNQFPQSCSNMPAKPGHLGHPQQTEVAPDPTTMGNRHRELGVPDSALAGVPPPHPVQSYPQQSHHLAASMSQEGYHQVPSLLPARQPGFMEPQTGPMGVATAGFGLVQPRPPLEPSPTGRHRGVRAVQQQLAYARATGHAMAAMPSSQETAEAVPKGAMGNMGSVPPQPPPQDAGGAPDHSMLYYYGQIHMYEQDGGLENLGSCQVMRSQPPQPQACQDSIQPQPLPSPGVNQVSSTVDSQLLEAPQIDFDAIMDDGDHSSLFSGALSPSLLHSLSQNSSRLTTPRNSLTLPSIPAGISNMAVGDMSSMLTSLAEESKFLNMMT
In the case of B3, the “other: transcriptional activity” value in the series “luciferase reporters” (control: wild type GLI2) is on record as “decreases”.

B4: human GLI2: S358D (protein)
parent chain: METSASATASEKQEAKSGILEAAGFPDPGKKASPLVVAAAAAAAVAAQGVPQHLLPPFHAPLPIDMRHQEGRYHYEPHSVHGVHGPPALSGSPVISDISLIRLSPHPAGPGESPFNAPHPYVNPHMEHYLRSVHSSPTLSMISAARGLSPADVAQEHLKERGLFGLPAPGTTPSDYYHQMTLVAGHPAPYGDLLMQSGGAASAPHLHDYLNPVDVSRFSSPRVTPRLSRKRALSISPLSDASLDLQRMIRTSPNSLVAYINNSRSSSAASGSYGHLSAGALSPAFTFPHPINPVAYQQILSQQRGLGSAFGHTPPLIQPSPTFLAQQPMALTSINATPTQLSSSSNCLSDTNQNKQSSESAVSSTVNPVAIHKRSKVKTEPEGLRPASPLALTQGQVSGHGSCGCALPLSQEQLADLKEDLDRDDCKQEAEVVIYETNCHWEDCTKEYDTQEQLVHHINNEHIHGEKKEFVCRWQACTREQKPFKAQYMLVVHMRRHTGEKPHKCTFEGCSKAYSRLENLKTHLRSHTGEKPYVCEHEGCNKAFSNASDRAKHQNRTHSNEKPYICKIPGCTKRYTDPSSLRKHVKTVHGPDAHVTKKQRNDVHLRTPLLKENGDSEAGTEPGGPESTEASSTSQAVEDCLHVRAIKTESSGLCQSSPGAQSSCSSEPSPLGSAPNNDSGVEMPGTGPGSLGDLTALDDTPPGADTSALAAPSAGGLQLRKHMTTMHRFEQLKKEKLKSLKDSCSWAGPTPHTRNTKLPPLPGSGSILENFSGSGGGGPAGLLPNPRLSELSASEVTMLSQLQERRDSSTSTVSSAYTVSRRSSGISPYFSSRRSSEASPLGAGRPHNASSADSYDPISTDASRRSSEASQCSGGSGLLNLTPAQQYSLRAKYAAATGGPPPTPLPGLERMSLRTRLALLDAPERTLPAGCPRPLGPRRGSDGPTYGHGHAGAAPAFPHEAPGGGARRASDPVRRPDALSLPRVQRFHSTHNVNPGPLPPCADRRGLRLQSHPSTDGGLARGAYSPRPPSISENVAMEAVAAGVDGAGPEADLGLPEDDLVLPDDVVQYIKAHASGALDEGTGQVYPTESTGFSDNPRLPSPGLHGQRRMVAADSNVGPSAPMLGGCQLGFGAPSSLNKNNMPVQWNEVSSGTVDALASQVKPPPFPQGNLAVVQQKPAFGQYPGYSPQGLQASPGGLDSTQPHLQPRSGAPSQGIPRVNYMQQLRQPVAGSQCPGMTTTMSPHACYGQVHPQLSPSTISGALNQFPQSCSNMPAKPGHLGHPQQTEVAPDPTTMGNRHRELGVPDSALAGVPPPHPVQSYPQQSHHLAASMSQEGYHQVPSLLPARQPGFMEPQTGPMGVATAGFGLVQPRPPLEPSPTGRHRGVRAVQQQLAYARATGHAMAAMPSSQETAEAVPKGAMGNMGSVPPQPPPQDAGGAPDHSMLYYYGQIHMYEQDGGLENLGSCQVMRSQPPQPQACQDSIQPQPLPSPGVNQVSSTVDSQLLEAPQIDFDAIMDDGDHSSLFSGALSPSLLHSLSQNSSRLTTPRNSLTLPSIPAGISNMAVGDMSSMLTSLAEESKFLNMMT
Regarding B4, the “other: transcriptional activity” value in the series “luciferase reporters” (control: wild type GLI2) is reported as “decreases”.
